Columns and labels:
[1] = target: T1, Jurkat/hCD20 cells (human CD20, no GITR; negative control cell line) (human, UniProt P11836 1-297); test: cell-based or functional assay
T1 sequence (looked up): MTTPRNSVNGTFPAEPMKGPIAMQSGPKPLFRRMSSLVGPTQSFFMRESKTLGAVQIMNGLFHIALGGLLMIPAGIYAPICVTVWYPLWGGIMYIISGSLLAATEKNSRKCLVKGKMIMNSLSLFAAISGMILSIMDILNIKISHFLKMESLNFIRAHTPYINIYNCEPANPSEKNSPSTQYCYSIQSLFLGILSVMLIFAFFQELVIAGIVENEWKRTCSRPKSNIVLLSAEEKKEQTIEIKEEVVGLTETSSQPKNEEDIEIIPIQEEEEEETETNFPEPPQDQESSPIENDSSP

[2] = target: T2, cynomolgus monkey GITR expressed on the cell surface (Macaca fascicularis (cynomolgus monkey)); test: cell-based or functional assay
[3] = target: T3, human GITR expressed on the cell surface (human, UniProt Q9Y5U5 26-241); test: cell-based or functional assay
T3 sequence: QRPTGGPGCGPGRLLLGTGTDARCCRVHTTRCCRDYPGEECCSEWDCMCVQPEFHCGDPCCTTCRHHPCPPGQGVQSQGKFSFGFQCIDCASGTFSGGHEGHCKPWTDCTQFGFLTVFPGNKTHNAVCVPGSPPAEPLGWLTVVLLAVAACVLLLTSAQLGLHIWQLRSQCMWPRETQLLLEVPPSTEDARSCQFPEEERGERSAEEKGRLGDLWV

[4] = target: T3, human GITR expressed on the cell surface; test: cell-based or functional assay; remark: listed apart in the source
[5] = target: T2, cynomolgus monkey GITR expressed on the …; test: flow cytometry, AF647-conjugated antibody on CD4+ CD69+ cynomolgus monkey primary T cells, donor 58947
Procedure: FIG. 7 depicts antibody binding to CD69+ cynomolgus monkey primary T-cells. Primary cynomolgus monkey T-cells from 4 separate donors were stimulated in vitro with anti-CD2/anti-CD3/anti-CD28-coated beads. Cell-surface binding of AF647-conjugated mAb1 and AF647-conjugated IgG1 isotype control at a range of concentrations (8 pM to 200 nM) on CD69⁺ and CD69⁻ cynomolgus monkey primary CD4⁺ and CD8⁺ T-cells was detected using flow cytometry. Fluorescence intensity was plotted as geometric MFI. Mf, Macaca fascicularis (cynomolgus monkey)
Peripheral blood mononuclear cells (PBMC) were isolated from human or cynomolgus monkey whole blood (4 donors each) using density centrifugation through Ficoll-Paque PLUS in SepMate tubes (for human PBMC) or 50 mL conical tubes (for cynomolgus monkey PBMC) and transferred to a fresh conical tube for incubation in Red Blood Cell (RBC) Lysis Buffer. […] After 4 days, activation beads were removed from the culture using a MACSiMAG Separator, and cells were collected and counted.
Flow cytometry was used to evaluate mAb1 binding to human or cynomolgus monkey T-cells in activated PBMC. […] Data were analyzed with Flowio software. For EC₅₀ determinations, measured geometric MFI values were analyzed using a 4-parameter logistic equation over a 12-point response curve with GraphPad Prism.

[6] = target: T3, human GITR expressed on the cell surface; test: cell-based or functional assay; remark: listed apart in the source
[7] = target: T3, human GITR expressed on the cell surface; test: flow cytometry on Jurkat/hCD20/hGITR cells; max MFI over secondary antibody alone
Procedure: Flow cytometry was used to evaluate mAb1 binding to Jurkat/hCD20/hGITR cells and Jurkat/hCD20/MfGITR cells. Jurkat/hCD20 cells were used as a negative control cell line for GITR binding. Cells were added to a 96-well V-bottom plate (2×10⁵ to 4×10⁵ cells/well) and incubated in Fc block solution, followed by successive incubation on ice with primary antibody (mAb1 or IgG1 isotype control) at final concentrations ranging from 18 pM to 300 nM and a secondary antibody (AF647-conjugated anti-human IgG) at 5 μg/mL. Cells were then stained with LIVE/DEAD Fixable Green Dead Cell Stain according to the manufacturer's instructions. […] Data were analyzed with Flow.lo software. For EC₅₀ (effective concentration at 50% activity) determinations, measured geometric MFI values were analyzed using a 4-parameter logistic equation over a 9-point response curve with GraphPad Prism. The fold binding was determined by taking the ratio of the highest MFI on the curve to the MFI of the wells containing secondary antibody only.
^a The maximum MFI was the highest mean MFI value within the concentration range tested (18 pM to 300 nM). ^b Fold binding was calculated as the maximum MFI above background (secondary antibody alone). h, Human; Mf, Macaca fascicularis (cynomolgus monkey); ND, Not determined because concentration-dependent binding was not observed

B1: mAb1 (antibody, human IgG1, kappa, V domains shown)
VH: QVQLQESGPGLVKPSETLSLTCIVSGGSISGYFWNWIRQPPGKGLEWIGYIYYSGTTIYNPSLKSRFTISLDTSKNQFSLKLTSVTAADTAVYYCARESYDPSPRYFDHWGQGTLVTVSS
VL: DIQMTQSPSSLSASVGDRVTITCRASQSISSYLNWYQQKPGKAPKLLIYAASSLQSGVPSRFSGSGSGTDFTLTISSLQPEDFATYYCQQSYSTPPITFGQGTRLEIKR
notes: Human IgG1; N101D variant of CompAb1; also called N101D Variant; N101D
- Fold Change in Activity, NFAT-luciferase in Jurkat/NFAT-Luc/MfFcγR3a effector cells with Jurkat/hCD20 target cells [1]: 1.02 fold
- Fold Change in Activity, NFAT-luciferase in Jurkat/NFAT-Luc/hFcγR3a effector cells with Jurkat/hCD20 target cells [1]: 1.01 fold
- EC50, NFAT-luciferase in Jurkat/NFAT-Luc/MfFcγR3a effector cells with Jurkat/hCD20/MfGITR target cells [2]: 0.016 nM
- Fold Change in Activity, NFAT-luciferase in Jurkat/NFAT-Luc/MfFcγR3a effector cells with Jurkat/hCD20/MfGITR target cells [2]: 23.9 fold
- EC50, NFAT-luciferase in Jurkat/NFAT-Luc/hFcγR3a effector cells with Jurkat/hCD20/hGITR target cells [3]: 0.032 nM
- Fold Change in Activity, NFAT-luciferase in Jurkat/NFAT-Luc/hFcγR3a effector cells with Jurkat/hCD20/hGITR target cells [3]: 38 fold
- EC50, anti-CD3-mediated primary CD4+ T-cell proliferation, Donor 1900G [4]: 0.43 nM
- EC50, anti-CD3-mediated primary CD4+ T-cell proliferation, Donor 2000U [4]: 0.0391 nM
- EC50, anti-CD3-mediated primary CD4+ T-cell proliferation, Donor 3600Y [4]: 17.2 nM
- EC50, anti-CD3-mediated primary CD4+ T-cell proliferation, Donor 3800U [4]: 0.107 nM
- EC50, anti-CD3-mediated primary CD4+ T-cell proliferation, Donor 34001 [4]: 0.193 nM
- Fold Change in Activity, anti-CD3-mediated primary CD4+ T-cell proliferation, Donor 1900G [4]: 3.14 fold
- Fold Change in Activity, anti-CD3-mediated primary CD4+ T-cell proliferation, Donor 2000U [4]: 2.45 fold
- Fold Change in Activity, anti-CD3-mediated primary CD4+ T-cell proliferation, Donor 3600Y [4]: 2.3 fold
- Fold Change in Activity, anti-CD3-mediated primary CD4+ T-cell proliferation, Donor 3800U [4]: 2.45 fold
- Fold Change in Activity, anti-CD3-mediated primary CD4+ T-cell proliferation, Donor 34001 [4]: 2.62 fold
- Fold Change in Activity, anti-CD3-mediated primary CD4+ T-cell proliferation, Donor 41003 [4]: 2.54 fold
- EC50 (read off the curve) [5]: ~3 nM
- EC50, ADCC against human primary CD8+ T-cells Donor 0200R, NK Donor 05001 [6]: 0.139 nM
- EC50, ADCC against human primary CD8+ T-cells Donor 0400N, NK Donor 04003 [6]: 0.0764 nM
- EC50, ADCC against human primary CD8+ T-cells Donor 0400N, NK Donor 05001 [6]: 0.116 nM
- EC50, ADCC against human primary CD8+ T-cells Donor 5100X, NK Donor 04003 [6]: 0.128 nM
- EC50, ADCC against human primary CD8+ T-cells Donor 5100X, NK Donor 05001 [6]: 0.0951 nM
- EC50, ADCC against human primary Tregs Donor 0200R, NK Donor 04003 [6]: 0.0399 nM
- EC50, ADCC against human primary Tregs Donor 0200R, NK Donor 05001 [6]: 0.0647 nM
- EC50, ADCC against human primary Tregs Donor 0400N, NK Donor 04003 [6]: 0.0372 nM
- EC50, ADCC against human primary Tregs Donor 0400N, NK Donor 05001 [6]: 0.0449 nM
- EC50, ADCC against human primary Tregs Donor 5100X, NK Donor 04003 [6]: 0.0888 nM
- EC50, ADCC against human primary Tregs Donor 5100X, NK Donor 05001 [6]: 0.0834 nM
- Fold Binding [7]: 290 fold

From patent publication US20240076396A1 (Regeneron, published 2024)
